Measurements published in article PMC11742849.

Molecular target: recombinant mouse TfR extracellular domain protein (UniProt Q62351)
Experiment: ELISA
Details: ligand concentration 20 nM (est. from x axis); mTfR coated on plate; signal normalized to each construct's own maximum; parent: est. 78; read off a plot

Sequence of UniProt Q62351 (Q62351 89-763): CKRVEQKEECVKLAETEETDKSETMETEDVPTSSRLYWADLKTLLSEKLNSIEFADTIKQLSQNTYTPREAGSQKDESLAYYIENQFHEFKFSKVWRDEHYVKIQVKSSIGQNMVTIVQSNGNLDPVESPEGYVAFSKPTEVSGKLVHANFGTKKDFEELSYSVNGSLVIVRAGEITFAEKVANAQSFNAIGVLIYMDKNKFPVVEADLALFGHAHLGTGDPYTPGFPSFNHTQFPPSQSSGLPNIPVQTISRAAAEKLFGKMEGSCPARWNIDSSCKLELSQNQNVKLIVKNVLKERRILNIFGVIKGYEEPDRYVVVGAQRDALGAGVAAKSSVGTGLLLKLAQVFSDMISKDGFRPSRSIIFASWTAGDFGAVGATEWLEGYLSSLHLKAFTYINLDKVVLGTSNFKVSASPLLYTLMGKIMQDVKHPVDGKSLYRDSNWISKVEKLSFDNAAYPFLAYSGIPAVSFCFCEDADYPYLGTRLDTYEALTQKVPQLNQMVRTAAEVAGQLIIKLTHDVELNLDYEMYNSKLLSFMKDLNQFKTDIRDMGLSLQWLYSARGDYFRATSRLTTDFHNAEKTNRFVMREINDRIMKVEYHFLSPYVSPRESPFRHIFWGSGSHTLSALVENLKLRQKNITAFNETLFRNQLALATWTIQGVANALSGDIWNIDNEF

response (% of own maximum OD450) | Substance
24 | scFc-scFv8D3 Y103F
26 | scFc-scFv8D3 T100V
39 | scFc-scFv8D3 S101A
17 | scFc-scFv8D3 H102A
